Data as given in paper PMC4678814 (Nucleic Acids Research, 2015).

Experiments:
[1] = target: GST-tagged ChYtm1 (Chaetomium thermophilum) (UniProt G0SFB5); experiment: BLI
[2] = target: T1, 6xHis-tagged ChYtm1 (Ytm1 from Chaetomium thermophilum) (Chaetomium thermophilum, UniProt G0SFB5 1-495); experiment: ITC
T1 sequence (looked up): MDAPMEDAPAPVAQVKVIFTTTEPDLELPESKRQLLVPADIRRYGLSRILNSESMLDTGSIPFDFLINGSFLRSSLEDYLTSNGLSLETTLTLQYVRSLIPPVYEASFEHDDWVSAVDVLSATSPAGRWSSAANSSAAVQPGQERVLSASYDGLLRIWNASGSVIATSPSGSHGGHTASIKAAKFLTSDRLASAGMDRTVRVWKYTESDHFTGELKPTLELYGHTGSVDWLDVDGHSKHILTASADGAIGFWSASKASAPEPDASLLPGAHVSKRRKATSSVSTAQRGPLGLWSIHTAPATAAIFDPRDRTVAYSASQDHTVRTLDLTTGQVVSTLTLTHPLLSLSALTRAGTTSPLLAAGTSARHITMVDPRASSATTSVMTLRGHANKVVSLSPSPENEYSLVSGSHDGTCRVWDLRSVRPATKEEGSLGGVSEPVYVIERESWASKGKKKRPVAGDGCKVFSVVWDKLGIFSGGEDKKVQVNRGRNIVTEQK

Molecule: 6xHis-ChErb1[R486E], full-length (from UniProt G0SCK6 1-801) (natural protein)
- fold loss of affinity (KD) against the ChErb1-ChYtm1 interaction [1]: 100 fold

Molecule: ChErb1 R486A mutant (from UniProt G0SCK6 1-801) (natural protein)
- Kd [1]: 7 nM

B1: 6xHis-ChErb1_(432–801) (β-propeller domain of ChErb1) (domain or fragment, Chaetomium thermophilum, UniProt G0SCK6 432-801, looked up)
chain: LPSPDELKPFPTVQQTIFRGHEGRVRSVAIDPTGVALATGGDDGTVRVWELLTGRQVWSVKLNGDEAVNTVRWRPTKDTFILAAAAGEDIFLMIPTHPSVTPALDQASRDILNAGFGHATNGKQQANLPPGKEPPGKWARPGTRLEDEGVLLRITVRSTIKAISWHRRGDHFATVSPSGQRSSVAIHTLSKHLTQIPFRKLNGLAQTASFHPLRPLFFVATQRSIRCYDLQKLELVKIVQPGAKWISSFDVHPGGDNLVVGSYDKRLLWHDLDLSNRPYKTMRFHTEAIRAVRFHKGGLPLFADASDDGSLQIFHGKVPNDQLENPTIVPVKMLKGHKVVNKLGVLDIDWHPREPWCVSAGADGTARLWM
- Kd [2]: ~9 nM
